Legend:
HeLa Kyoto [1] = experiment: solubility in G1/S (NP-40 vs SDS abundance) (log2 ratio); higher = more soluble; settings: cell cycle stage: G1/S
HeLa Kyoto [2] = experiment: thermal stability score vs G1/S (z-score of summed log2 fold changes over temperatures); higher = more thermally stable than in G1/S
HeLa Kyoto [3] = experiment: melting temperature (median over replicates), in situ; higher = more thermally stable
HeLa Kyoto [4] = experiment: solubility change mitosis vs G1/S (difference of NP-40 vs SDS log2 ratios) (log2 ratio difference); higher = more soluble in mitosis
[5] = cell cycle stage: early G1 (4.5 h after nocodazole release)
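Throughout, for melting temperature (median over replicates), in situ: HeLa Kyoto cells synchronized by double thymidine or nocodazole block, proteins quantified by TMT10plex mass spectrometry, three independent biological replicates.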
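Throughout, for solubility change mitosis vs G1/S (difference of NP-40 vs SDS log2 ratios): synchronized HeLa Kyoto cells (double thymidine block for G1/S, nocodazole release for mitosis), protein amounts in NP-40 versus SDS lysates quantified by mass spectrometry, three biological replicates.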
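Throughout, for solubility in G1/S (NP-40 vs SDS abundance): HeLa Kyoto cells arrested at G1/S by double thymidine block, proteins quantified by TMT10plex mass spectrometry in mild NP-40 versus SDS extracts, three biological replicates.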
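Throughout, for thermal stability score vs G1/S (z-score of summed log2 fold changes over temperatures): synchronized HeLa Kyoto cells, proteins quantified by TMT10plex mass spectrometry, three biological replicates, mitosis taken 0.5 h after nocodazole release, G1/S directly after double thymidine block.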

Sequence of SDHA (chain, as listed by the source): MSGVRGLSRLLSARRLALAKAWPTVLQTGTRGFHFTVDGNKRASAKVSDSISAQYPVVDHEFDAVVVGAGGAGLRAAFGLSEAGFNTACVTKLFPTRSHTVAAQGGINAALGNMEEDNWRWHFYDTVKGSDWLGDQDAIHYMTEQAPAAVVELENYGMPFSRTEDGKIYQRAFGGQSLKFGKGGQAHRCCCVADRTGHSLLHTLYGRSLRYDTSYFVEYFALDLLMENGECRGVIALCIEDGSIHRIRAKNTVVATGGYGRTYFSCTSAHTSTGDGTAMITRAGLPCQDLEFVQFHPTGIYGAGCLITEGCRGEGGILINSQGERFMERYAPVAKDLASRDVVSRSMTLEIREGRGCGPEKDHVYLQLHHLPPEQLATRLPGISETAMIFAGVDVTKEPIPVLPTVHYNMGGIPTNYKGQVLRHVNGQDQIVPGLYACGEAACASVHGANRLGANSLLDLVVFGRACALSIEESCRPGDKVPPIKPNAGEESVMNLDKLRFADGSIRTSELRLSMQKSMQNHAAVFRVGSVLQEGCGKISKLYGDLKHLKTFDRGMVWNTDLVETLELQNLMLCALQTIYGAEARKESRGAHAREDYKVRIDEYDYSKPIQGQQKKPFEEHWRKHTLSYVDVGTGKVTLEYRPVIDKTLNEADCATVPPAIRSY

“MEPAPSEVRLAVREAIHALSSSEDGGHIFCTLESLKRYLGEMEPPALPREKEEFASAHFSPVLRCLASRLSPAWLELLPHGRLEELWASFFLEGPADQAFLVLMETIEGAAGPSFRLMKMARLLARFLREGRLAVLMEAQCRQQTQPGFILLRETLLGKVVALPDHLGNRLQQENLAEFFPQNYFRLLGEEVVRVLQAVVDSLQGGLDSSVSFVSQVLGKACVHGRQQEILGVLVPRLAALTQGSYLHQRVCWRLVEQVPDRAMEAVLTGLVEAALGPEVLSRLLGNLVVKNKKAQFVMTQKLLFLQSRLTTPMLQSLLGHLAMDSQRRPLLLQVLKELLETWGSSSAIRHTPLPQQRHVSKAVLICLAQLGEPELRDSRDELLASMMAGVKCRLDSSLPPVRRLGMIVAEVVSARIHPEGPPLKFQYEEDELSLELLALASPQPAGDGASEAGTSLVPATAEPPAETPAEIVDGGVPQAQLAGSDSDLDSDDEFVPYDMSGDRELKSSKAPAYVRDCVEALTTSEDIERWEAALRALEGLVYRSPTATREVSVELAKVLLHLEEKTCVVGFAGLRQRALVAVTVTDPAPVADYLTSQFYALNYSLRQRMDILDVLTLAAQELSRPGCLGRTPQPGSPSPNTPCLPEAAVSQPGSAVASDWRVVVEERIRSKTQRLSKGGPRQGPAGSPSRFNSVAGHFFFPLLQRFDRPLVTFDLLGEDQLVLGRLAHTLGALMCLAVNTTVAVAMGKALLEFVWALRFHIDAYVRQGLLSAVSSVLLSLPAARLLEDLMDELLEARSWLADVAEKDPDEDCRTLALRALLLLQRLKNRLLPPASP [TELO2]” was tested, and the “solubility in G1/S (log2)” value (HeLa Kyoto [1]) was -0.341, the thermal stability score (HeLa Kyoto [2]; [5]) was -0.195 and the thermal stability score (HeLa Kyoto [2]; cell cycle stage: mitosis) was 0.325. For the same substance, the melting temperature (HeLa Kyoto [3]; cell cycle stage: G1/S) was 48.8 °C, the melting temperature (HeLa Kyoto [3]; cell cycle stage: mitosis) was 49.1 °C and the “solubility change mitosis (log2)” value (HeLa Kyoto [4]) was -0.103.

With “MQWLRVRESPGEATGHRVTMGTAALGPVWAALLLFLLMCEIPMVELTFDRAVASGCQRCCDSEDPLDPAHVSSASSSGRPHALPEIRPYINITILKGDKGDPGPMGLPGYMGREGPQGEPGPQGSKGDKGEMGSPGAPCQKRFFAFSVGRKTALHSGEDFQTLLFERVFVNLDGCFDMATGQFAAPLRGIYFFSLNVHSWNYKETYVHIMHNQKEAVILYAQPSERSIMQSQSVMLDLAYGDRVWVRLFKRQRENAIYSNDFDTYITFSGHLIKAEDD [C1QTNF6]” the “solubility in G1/S (log2)” value (HeLa Kyoto [1]) was 0.0492, the thermal stability score (HeLa Kyoto [2]; [5]) was 0.27 and the thermal stability score (HeLa Kyoto [2]; cell cycle stage: mitosis) was -0.884. For the same substance, the melting temperature (HeLa Kyoto [3]; cell cycle stage: mitosis) was 55 °C and the “solubility change mitosis (log2)” value (HeLa Kyoto [4]) was -0.235.

With SDHA the “solubility in G1/S (log2)” value (HeLa Kyoto [1]) was -0.11, the thermal stability score (HeLa Kyoto [2]; [5]) was 1.89 and the thermal stability score (HeLa Kyoto [2]; cell cycle stage: mitosis) was 2.23. The melting temperature (HeLa Kyoto [3]; cell cycle stage: G1/S) was 54.7 °C, the melting temperature (HeLa Kyoto [3]; cell cycle stage: mitosis) was 56.4 °C and the “solubility change mitosis (log2)” value (HeLa Kyoto [4]) was -0.0448.

For “MDGAAGPGDGPAREALQSLSQRLRVQEQEMELVKAALAEALRLLRLQVPPSSLQGSGTPAPPGDSLAAPPGLPPTCTPSLVSRGTQTETEVELKSSPGPPGLSNGPPAPQGASEEPSGTQSEGGGSSSSGAGSPGPPGILRPLQPPQRADTPRRNSSSSSSPSERPRQKLSRKAISSANLLVRSGSTESRGGKDPLSSPGGPGSRRSNYNLEGISVKMFLRGRPITMYIPSGIRSLEELPSGPPPETLSLDWVYGYRGRDSRSNLFVLRSGEVVYFIACVVVLYRPGGGPGGPGGGGQRHYRGHTDCVRCLAVHPDGVRVASGQTAGVDKDGKPLQPVVHIWDSETLLKLQEIGLGAFERGVGALAFSAADQGAFLCVVDDSNEHMLSVWDCSRGMKLAEIKSTNDSVLAVGFNPRDSSCIVTSGKSHVHFWNWSGGVGVPGNGTLTRKQGVFGKYKKPKFIPCFVFLPDGDILTGDSEGNILTWGRSPSDSKTPGRGGAKETYGIVAQAHAHEGSIFALCLRRDGTVLSGGGRDRRLVQWGPGLVALQEAEIPEHFGAVRAIAEGLGSELLVGTTKNALLRGDLAQGFSPVIQGHTDELWGLCTHPSQNRFLTCGHDRQLCLWDGESHALAWSIDLKETGLCADFHPSGAVVAVGLNTGRWLVLDTETREIVSDVIDGNEQLSVVRYSPDGLYLAIGSHDNVIYIYSVSSDGAKSSRFGRCMGHSSFITHLDWSKDGNFIMSNSGDYEILYWDVAGGCKQLKNRYESRDREWATYTCVLGFHVYGVWPDGSDGTDINSLCRSHNERVVAVADDFCKVHLFQYPCARAKAPSRMYGGHGSHVTSVRFTHDDSHLVSLGGKDASIFQWRVLGAGGAGPAPATPSRTPSLSPASSLDV [EML3]”, the “solubility in G1/S (log2)” value (HeLa Kyoto [1]) was 0.0248, the thermal stability score (HeLa Kyoto [2]; [5]) was -0.497 and the thermal stability score (HeLa Kyoto [2]; cell cycle stage: mitosis) was 0.0727. The melting temperature (HeLa Kyoto [3]; cell cycle stage: G1/S) was 51.6 °C, the melting temperature (HeLa Kyoto [3]; cell cycle stage: mitosis) was 52 °C and the “solubility change mitosis (log2)” value (HeLa Kyoto [4]) was -0.215.

EIF4G3 was tested, and the “solubility in G1/S (log2)” value (HeLa Kyoto [1]) was 0.109, the thermal stability score (HeLa Kyoto [2]; [5]) was 0.306 and the thermal stability score (HeLa Kyoto [2]; cell cycle stage: mitosis) was 2.44. For the same substance, the melting temperature (HeLa Kyoto [3]; cell cycle stage: G1/S) was 49.1 °C, the melting temperature (HeLa Kyoto [3]; cell cycle stage: mitosis) was 49.4 °C and the “solubility change mitosis (log2)” value (HeLa Kyoto [4]) was -0.178.

“MAENPSLENHRIKSFKNKGRDVETMRRHRNEVTVELRKNKRDEHLLKKRNVPQEESLEDSDVDADFKAQNVTLEAILQNATSDNPVVQLSAVQAARKLLSSDRNPPIDDLIKSGILPILVKCLERDDNPSLQFEAAWALTNIASGTSAQTQAVVQSNAVPLFLRLLRSPHQNVCEQAVWALGNIIGDGPQCRDYVISLGVVKPLLSFISPSIPITFLRNVTWVIVNLCRNKDPPPPMETVQEILPALCVLIYHTDINILVDTVWALSYLTDGGNEQIQMVIDSGVVPFLVPLLSHQEVKVQTAALRAVGNIVTGTDEQTQVVLNCDVLSHFPNLLSHPKEKINKEAVWFLSNITAGNQQQVQAVIDAGLIPMIIHQLAKGDFGTQKEAAWAISNLTISGRKDQVEYLVQQNVIPPFCNLLSVKDSQVVQVVLDGLKNILIMAGDEASTIAEIIEECGGLEKIEVLQQHENEDIYKLAFEIIDQYFSGDDIDEDPCLIPEATQGGTYNFDPTANLQTKEFNF [KPNA3]” was tested, and the “solubility in G1/S (log2)” value (HeLa Kyoto [1]) was 0.128, the thermal stability score (HeLa Kyoto [2]; [5]) was 1.67 and the thermal stability score (HeLa Kyoto [2]; cell cycle stage: mitosis) was 4.62. The melting temperature (HeLa Kyoto [3]; cell cycle stage: G1/S) was 49 °C, the melting temperature (HeLa Kyoto [3]; cell cycle stage: mitosis) was 50.5 °C and the “solubility change mitosis (log2)” value (HeLa Kyoto [4]) was -0.0814.

Reference: the supplement of paper PMC5998384
